Patent US20250277031A1 (BEIJING HANMI PHARMACEUTICAL, published 2025)

Legend:
[1] = target: T1, recombinant human B7-H2 (ACROBiosystems) (human, UniProt O75144 19-258, limits assumed); assay: ELISA, plate coated with 1 µg/mL recombinant human protein, anti-human IgG-HRP, OD450; antibody concentration not given
T1 construct: counted here as a B7 family member
T1 sequence (looked up): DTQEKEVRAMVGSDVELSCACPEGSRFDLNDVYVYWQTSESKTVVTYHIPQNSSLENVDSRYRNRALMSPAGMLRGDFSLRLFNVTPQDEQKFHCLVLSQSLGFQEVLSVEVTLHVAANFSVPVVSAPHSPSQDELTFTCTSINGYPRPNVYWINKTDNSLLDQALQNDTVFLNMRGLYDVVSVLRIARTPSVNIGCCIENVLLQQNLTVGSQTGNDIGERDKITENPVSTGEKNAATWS
Experimental: Binding specificity of the chimeric anti-human CD47 mAbs was determined by ELISA. A 96-well high-adsorption ELISA plate was coated with 1 μg/mL of the recombinant human PD1, CD28, CTLA4, ICOS, BTLA, CD47, PD-L2, CD80, CD86, B7-H2, CD47, SIRPα and SIRPγ (all from ACROBiosystems), at 100 μL per well using carbonate buffer solution, pH=9.6 at 4° C. overnight. The plate was washed 5 times with PBST, and then blocked using PBST with 1% BSA, 300 μL/well, and incubated at 25° C. for 1 hour, and then washed 5 times with PBST. The chimeric anti-human CD47 mAb samples serially diluted in PBST with 1% BSA and the control CC-90002 and the isotype control were added, 100 μL/well, incubated at 25° C. for 1 hour, and then washed 5 times with PBST. The horseradish peroxidase-labeled anti-human IgG antibody (Chemicon, catalog number AP309P) diluted 1:10000 in PBST with 1% BSA was then added, 100 μL per well, and incubated at 25° C. for 1 hour. The plate was washed 5 times with PBST. The colorimetric substrate TMB was added, 100 μL/well, and developed at room temperature for 10 minutes. 1M H₂SO₄ was added, 100 μL/well, to stop the development. The absorbance at 450 nm was read on a microplate reader.

[2] = target: T2, recombinant rat CD47 (rat, UniProt P97829 19-140, limits assumed); assay: ELISA, plate coated with 1 µg/mL recombinant rat CD47, anti-human IgG-HRP, OD450
T2 sequence (looked up): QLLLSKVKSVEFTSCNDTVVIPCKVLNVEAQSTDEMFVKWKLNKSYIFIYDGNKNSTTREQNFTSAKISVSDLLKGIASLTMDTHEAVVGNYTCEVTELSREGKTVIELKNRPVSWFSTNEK
Experimental: (§1) Species specificity of the chimeric anti-human CD47 mAbs was determined by ELISA. A 96-well high-adsorption ELISA plate was coated with 1 μg/mL of the recombinant human CD47, cynomolgus CD47, rat CD47 and mouse CD47, at 100 μL per well using carbonate buffer solution, pH=9.6 at 4° C. overnight. The plate was washed 5 times with PBST, and then blocked using PBST with 1% BSA, 300 μL/well, and incubated at 25° C. for 1 hour, and then washed 5 times with PBST. The chimeric anti-human CD47 antibody samples serially diluted in PBST with 1% BSA were added, 100 μL/well, incubated at 25° C. for 1 hour, and then washed 5 times with PBST. The horseradish peroxidase-labeled anti-human IgG antibody (Chemicon, catalog number AP309P) diluted 1:10000 in PBST with 1% BSA was then added, 100 μL per well, and incubated at 25° C. for 1 hour. The plate was washed 5 times with PBST. The colorimetric substrate TMB was added, 100 μL/well, and developed at room temperature for 10 minutes. 1M H₂SO₄ was added, 100 μL/well, to stop the development. The absorbance at 450 nm was read on a microplate reader.

[3] = target: T3, recombinant human CD47 (human, UniProt Q08722 19-139); assay: ELISA, plate coated with 1 µg/mL recombinant human CD47, anti-human IgG-HRP, OD450
T3 construct: also called antigen CD47
Experimental: as §1

[4] = target: T4, rat CD47 on rat red blood cells (rat, UniProt P97829 19-303); assay: flow cytometry on rat RBCs
T4 construct: whole, on cells; also called Rat RBCs
T4 sequence (looked up): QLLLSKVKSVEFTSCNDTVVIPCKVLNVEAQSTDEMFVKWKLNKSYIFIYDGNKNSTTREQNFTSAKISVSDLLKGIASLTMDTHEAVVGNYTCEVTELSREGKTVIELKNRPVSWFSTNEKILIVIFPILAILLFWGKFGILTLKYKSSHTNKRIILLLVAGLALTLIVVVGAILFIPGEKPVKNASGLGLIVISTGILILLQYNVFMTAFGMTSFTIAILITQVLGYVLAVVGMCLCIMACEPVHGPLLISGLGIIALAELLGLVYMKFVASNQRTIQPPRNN
Experimental: The species specificity of the chimeric anti-human CD47 monoclonal antibodies was determined by flow cytometer FACS. Normal human RBCs internally donated, cynomolgus RBCs, rat RBCs and mouse RBCs were collected, washed once with cold PBS (GIBCO, Catalog number 14190) containing 2% FBS (Hyclone, Catalog number SH30084.03). The RBCs (2×10⁶ cells per tube) were resuspended in 100 μL of cold PBS containing 2% FBS, and the serially diluted anti-human CD47 antibody samples and the control CC-90002 and the isotype control were added therein. Flow tubes were incubated on ice for 30 minutes. The cells were washed twice with PBS containing 2% FBS. Then the pellets were resuspended in 200 μL of cold PBS containing 2% FBS and FITC-labeled anti-human IgG antibody diluted 1:1000 (Beijing Zhongshan Golden Bridge, Catalog number ZF0306), incubated on ice for 30 minutes in the dark. The cells were washed twice with PBS containing 2% FBS, then resuspended in 500 μL of cold PBS. The cell suspension obtained was detected and analyzed on a flow cytometer (BD, FACS Calibur), and the fluorescence intensities of the RBCs were read.

[5] = target: T5, recombinant mouse CD47 (mouse, UniProt Q61735 19-140, limits assumed); assay: ELISA, plate coated with 1 µg/mL recombinant mouse CD47, anti-human IgG-HRP, OD450
T5 sequence (looked up): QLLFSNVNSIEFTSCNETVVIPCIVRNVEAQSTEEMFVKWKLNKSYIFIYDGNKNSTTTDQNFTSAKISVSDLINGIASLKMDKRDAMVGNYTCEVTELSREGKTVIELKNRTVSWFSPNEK
Experimental: as §1

[6] = target: recombinant cynomolgus CD47 (cynomolgus, UniProt A0A2K5X523 19-139); assay: ELISA, plate coated with 1 µg/mL recombinant cynomolgus CD47, anti-human IgG-HRP, OD450
Experimental: as §1

T3 sequence (Q08722 19-139 limits assumed): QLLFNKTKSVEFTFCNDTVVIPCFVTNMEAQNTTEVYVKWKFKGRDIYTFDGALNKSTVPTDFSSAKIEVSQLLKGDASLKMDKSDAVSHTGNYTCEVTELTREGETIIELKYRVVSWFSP

B1: chimeric anti-human CD47 monoclonal antibody mAb-18-5 (antibody, human IgG1, kappa)
heavy: not shown
light: DIVMTQSQKFMSTSVGDRVSITCKASQNVRTSIAWYQQKSGQSPKTLIYLASNRHTGVPDRFTGSGSGTDFTLTISNVQSEDLADYFCLQHWNYPFTFGSGTKLEIKRTVAAPSVFIFPPSDEQLKSGTASVVCLLNNFYPREAKVQWKVDNALQSGNSQESVTEQDSKDSTYSLSSTLTLSKADYEKHKVYACEVTHQGLSSPVTKSFNRGEC
- binding result [1]: no binding
- binding result [2]: no binding (tested: about 20 nM)
- EC50 [3]: 0.086 nM
- binding result [4]: no binding
- binding result [5]: no binding (tested: about 20 nM)
- EC50 [6]: 0.089 nM
